Assays:
Settings in all cases: both partners purified
[1] = target: T1, SARS-CoV-2 spike glycoprotein, soluble (amino acids 1-1207) (SARS-CoV-2, Wuhan-Hu-1 (QHD43416), UniProt P0DTC2, proline substitution at position 986 | proline substitution at position 987 | …); assay: ELISA; direct ELISA; plates coated with 2 μg/ml recombinant spike, S1, RBD or NTD; scFv-Fc detected with AP-conjugated anti-human IgG; specificity panel (Fig. 1c)
T1 construct: also called spike protein

[2] = target: T2, SARS-CoV-2 spike receptor-binding domain (RBD), monomeric (SARS-CoV-2, UniProt P0DTC2); assay: BLI; Octet; biotinylated scFv-Fc on streptavidin sensors; increasing concentrations of monomeric RBD, 300 s association, 600 s dissociation; 30 °C; 1:1 binding model
T2 construct: Called monomeric RBD in the BLI methods; Amino acids 1-15 are probably removed on secretion (surmise); also called monomeric RBD

[3] = target: T2, SARS-CoV-2 spike receptor-binding …; assay: ELISA; direct ELISA; plates coated with 2 μg/ml recombinant spike, S1, RBD or NTD; scFv-Fc detected with AP-conjugated anti-human IgG; specificity panel (Fig. 1c)

Binder | binding result [1] | Kd [2] | binding result [3]
MD62 (antibody, V domains shown, scFv-Fc format; also called MD62 scFv-Fc) VH: EVQLVQSGGGLIQPGGSLRLSCAASGVTVSSNYMTWVRQAPGKGLEWVSLIYSGGSTYYADSVKGRFTISRDNSKNTLYLQMNSLRAEDTAVYYCARDLQYYGMDVWGQGTMVTVSS VL: AIRMTQSPSSVSASVGDRVTITCRASQDIGSWLGWYQQKPGKAPKLLIYAASSLAGGVPSRFSGSGSGTDFTLTISSLQPEDFATYYCQQANSFPLTFGGGTKLEIK | binds |  | 
MD67 (antibody, V domains shown, scFv-Fc format; also called MD67 scFv-Fc) VH: EVQLVESGGGLVQPGGSLRLSCAASGFTVSSNYMTWVRQAPGKGLEWVSVIYSGGSTFYADSVKGRFTISRHNSKNTLYLQMNSLRAEDTAVYYCARDLSVRGGMDVWGQGTTVTVSS VL: not shown |  | 0.4 to 5.8 nM | 
MD17 (antibody, V domains shown, scFv-Fc format; also called MD17 scFv-Fc) VH: EVQLLESGGGLVQPGGSLRLSCSASGFTFSTYVMNWVRQAPGKGLEHVSGISSDGGITYYADSVKGRFTISRDNSKNTLYLQMSSLRVEDTAVYYCVKDQDSSSWYDAFDIWGQGTMVTVSS VL: DIVMTQSPSSLSASVGDRVTITCRASQSISNYLNWYQQKLGKAPKLLTYAASRLQSGVPSRFSASGSGTEFTLTISSLQPEDFATYYCQQSYTTPLTFGGGTKLEIK | binds |  | 
MD29 (antibody, V domains shown, scFv-Fc format; also called MD29 scFv-Fc) VH: QMQLVQSGGGLVQPGGSLRLSCSASGFTFSTYVMNWVRQAPGKGPEHVSGISSDGGITYYADSVKGRFTISRDNSKNTLYLQMSSLRVEDTAVYYCVKDQDSSSWYDAFDIWGQGTMVTVSS VL: NIRLTQSPSSLSASVGDRVTITCRATQSISSYLNWYQQKPGKAPNLLIYAASSLQSGVPSRFSGSGSGTDFTLTISSLQPEDFATYYCHQTYTSPYTFGQGTKLEIK | binds | 0.4 to 5.8 nM | 
MD47 (antibody, V domains shown, scFv-Fc format; also called MD47 scFv-Fc) V domain 1: QMQLVQSGGGLVQPGGSLRLSCAASGFTFSSYAMSWVRQAPGKGLEWVSAISSGGSTYYADSVKGRFTISRDNSKNTLYLQMNSLRAEDTAVYYCAKDLVTAPSYEAFDIWGQGTMITVSS V domain 2: NFMLTQPPSVSVAPGKTARITCGGNNIGSKSVHWYQQKPGQAPVLVIYYDSDRPSGIPERFSGSNSGNTATLTISRVEAGDEADYYCQVWDSSSHHHVVFGGGTKGTVL |  |  | binds
